One block for each binder: values may come before it.
What was measured:
[1] = target: T1, antibody-half molecule A1 with PF1H and PF1L-k0 (PF1H-DA303v2/PF1L-k0); assay: SPR (Biacore T200), about 50 RU of half molecule A captured on chip-bound biotinylated antigen peptide, half molecule B at 2.5 mg/mL as analyte
Experimental: (§1) The interaction between the obtained antibody-half molecules was analyzed using Biacore (registered trademark) T200. Biotin CAPture Kit, Series S (GE Healthcare) was used for the measurement, and HBS-EP+10X (GE Healthcare) diluted 1/10th was used as a running buffer. The measurement temperature was 25° C. For the sensor chip, Series S Sensor Chip CAP (GE Healthcare) onto which previously-biotinylated antigen peptides were allowed to interact and thereby immobilized was used. These chips were allowed to capture approximately 50 RU of the antibody-half molecule A of interest and then interact with the antibody-half molecule B of interest diluted with the running buffer at 2.5 mg/mL for 180 seconds at a flow rate of 30 μL/min, and measurement was carried out. The molar binding ratio was calculated based on the following Formula 2. The antibody-half molecule A captured on the chip was washed as described in the instructions attached to the kit, and the chip was regenerated and reused.
(§2) At this time, for the antibody-half molecules to be captured, PF1H (SEQ ID NO: 22), which is the H chain variable region portion of the anti-human IL6 receptor antibody described in WO 2009/041621, was used as the H chain variable region portion, PF1L (SEQ ID NO: 23), which is the L chain variable region portion of the anti-human IL6 receptor antibody described in WO 2009/041621, was used as the L chain variable region portion, and k0 was used as the L chain constant region portion. In addition, for the antibody-half molecules used as analytes, IC17H (SEQ ID NO: 24), which is the anti-KLH antibody described in WO 2015/174439, was used as the H chain variable region, IC17L (SEQ ID NO: 25), which is the anti-KLH antibody described in WO 2015/174439, was used as the L chain variable region, and k0 was used as the L chain constant region.

[2] = target: T1, antibody-half molecule A1 with PF1H and …; assay: SPR (Biacore T200), about 50 RU of half molecule A captured on chip-bound biotinylated antigen peptide, half molecule B at 2.5 mg/mL as analyte (Example 10)
Experimental: as §1
(§3) At this time, for the antibody-half molecule to be captured, PF1H (SEQ ID NO: 22), which is the H chain variable region portion of the anti-human IL6 receptor antibody described in WO 2009/041621, was used as the H chain variable region portion, PF1L (SEQ ID NO: 23), which is the L chain variable region portion of the anti-human IL6 receptor antibody described in WO 2009/041621, was used as the L chain variable region portion, and k0 was used as the L chain constant region portion. In addition, for the antibody-half molecules used as analytes, IC17H (SEQ ID NO: 24), which is the anti-KLH antibody described in WO 2015/174439, was used as the H chain variable region, IC17L (SEQ ID NO: 25), which is the anti-KLH antibody described in WO 2015/174439, was used as the L chain variable region, and k0 was used as L chain constant region.

[3] = target: antibody-half molecule A5 with PF1H and PF1L-k0 (PF1H-DA430v2/PF1L-k0); assay: SPR (Biacore T200), about 50 RU of half molecule A captured on chip-bound biotinylated antigen peptide, half molecule B at 2.5 mg/mL as analyte
Experimental: as §1, §2

[4] = target: antibody-half molecule A3 with PF1H and PF1L-k0 (PF1H-DA405v2/PF1L-k0); assay: as above
Experimental: as §1, §2

[5] = target: antibody-half molecule A4 with PF1H and PF1L-k0 (PF1H-DA424v2/PF1L-k0); assay: as above
Experimental: as §1, §2

[6] = target: antibody-half molecule A2 with PF1H and PF1L-k0 (PF1H-DA402v2/PF1L-k0); assay: as above
Experimental: as §1, §2

[7] = target: antibody-half molecule A6 with PF1H and PF1L-k0 (PF1H-DA303v2.n.n/PF1L-k0); assay: SPR (Biacore T200), about 50 RU of half molecule A captured on chip-bound biotinylated antigen peptide, half molecule B at 2.5 mg/mL as analyte (Example 10)
Experimental: as §1, §3

T1 sequence (heavy, as listed by the source): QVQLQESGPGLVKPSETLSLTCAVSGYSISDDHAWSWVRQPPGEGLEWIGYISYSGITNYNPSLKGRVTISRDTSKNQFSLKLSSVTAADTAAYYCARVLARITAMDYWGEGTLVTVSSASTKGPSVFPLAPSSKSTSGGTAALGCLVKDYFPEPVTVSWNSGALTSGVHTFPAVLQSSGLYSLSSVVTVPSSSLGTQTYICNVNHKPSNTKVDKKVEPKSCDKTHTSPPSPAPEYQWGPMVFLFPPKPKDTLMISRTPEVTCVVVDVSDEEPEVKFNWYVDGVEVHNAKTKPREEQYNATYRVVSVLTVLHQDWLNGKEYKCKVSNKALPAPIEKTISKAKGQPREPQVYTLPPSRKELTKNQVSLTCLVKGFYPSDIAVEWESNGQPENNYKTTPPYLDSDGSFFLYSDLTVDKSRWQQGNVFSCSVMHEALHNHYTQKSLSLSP
Chain of antibody-half molecule A3 with PF1H and PF1L-k0 (PF1H-DA405v2/PF1L-k0) (heavy, as listed by the source): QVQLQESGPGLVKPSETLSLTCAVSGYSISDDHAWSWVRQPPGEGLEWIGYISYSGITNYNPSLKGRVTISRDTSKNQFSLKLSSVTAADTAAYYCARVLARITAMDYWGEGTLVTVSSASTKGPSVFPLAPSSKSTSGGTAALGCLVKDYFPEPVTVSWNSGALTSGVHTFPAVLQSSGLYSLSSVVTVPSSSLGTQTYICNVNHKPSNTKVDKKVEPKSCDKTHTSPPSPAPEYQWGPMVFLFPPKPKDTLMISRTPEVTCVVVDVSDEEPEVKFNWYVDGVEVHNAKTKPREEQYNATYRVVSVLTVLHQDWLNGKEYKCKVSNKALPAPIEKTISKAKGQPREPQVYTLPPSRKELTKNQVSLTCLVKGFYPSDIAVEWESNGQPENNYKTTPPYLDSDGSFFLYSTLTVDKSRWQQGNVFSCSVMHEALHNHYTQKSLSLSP
Chain of antibody-half molecule A2 with PF1H and PF1L-k0 (PF1H-DA402v2/PF1L-k0) (heavy, as listed by the source): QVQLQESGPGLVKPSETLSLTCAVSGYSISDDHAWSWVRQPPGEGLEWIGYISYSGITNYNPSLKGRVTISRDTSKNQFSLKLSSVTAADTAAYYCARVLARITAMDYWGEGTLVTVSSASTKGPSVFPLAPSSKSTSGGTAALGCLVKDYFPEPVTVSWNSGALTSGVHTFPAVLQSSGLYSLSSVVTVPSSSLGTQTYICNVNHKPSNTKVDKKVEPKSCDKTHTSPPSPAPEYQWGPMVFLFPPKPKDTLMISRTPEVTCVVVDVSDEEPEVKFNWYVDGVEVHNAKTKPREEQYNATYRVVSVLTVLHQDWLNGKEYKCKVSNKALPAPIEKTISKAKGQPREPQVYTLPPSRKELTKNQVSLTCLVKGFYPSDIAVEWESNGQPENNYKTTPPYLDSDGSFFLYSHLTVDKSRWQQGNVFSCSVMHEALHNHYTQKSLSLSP
Chain of antibody-half molecule A4 with PF1H and PF1L-k0 (PF1H-DA424v2/PF1L-k0) (heavy, as listed by the source): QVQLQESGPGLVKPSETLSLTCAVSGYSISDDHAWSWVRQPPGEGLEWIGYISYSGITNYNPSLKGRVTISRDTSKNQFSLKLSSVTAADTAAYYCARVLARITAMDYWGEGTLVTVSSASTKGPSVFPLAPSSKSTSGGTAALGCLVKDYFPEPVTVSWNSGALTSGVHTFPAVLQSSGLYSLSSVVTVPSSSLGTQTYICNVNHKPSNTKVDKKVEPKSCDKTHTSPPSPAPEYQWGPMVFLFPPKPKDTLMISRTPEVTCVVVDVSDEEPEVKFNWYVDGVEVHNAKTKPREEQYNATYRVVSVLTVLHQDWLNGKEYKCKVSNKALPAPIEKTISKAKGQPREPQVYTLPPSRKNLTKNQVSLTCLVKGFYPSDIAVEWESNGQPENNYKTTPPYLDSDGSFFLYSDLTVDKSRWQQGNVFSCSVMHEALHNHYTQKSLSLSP
Chain of antibody-half molecule A6 with PF1H and PF1L-k0 (PF1H-DA303v2.n.n/PF1L-k0) (heavy, as listed by the source): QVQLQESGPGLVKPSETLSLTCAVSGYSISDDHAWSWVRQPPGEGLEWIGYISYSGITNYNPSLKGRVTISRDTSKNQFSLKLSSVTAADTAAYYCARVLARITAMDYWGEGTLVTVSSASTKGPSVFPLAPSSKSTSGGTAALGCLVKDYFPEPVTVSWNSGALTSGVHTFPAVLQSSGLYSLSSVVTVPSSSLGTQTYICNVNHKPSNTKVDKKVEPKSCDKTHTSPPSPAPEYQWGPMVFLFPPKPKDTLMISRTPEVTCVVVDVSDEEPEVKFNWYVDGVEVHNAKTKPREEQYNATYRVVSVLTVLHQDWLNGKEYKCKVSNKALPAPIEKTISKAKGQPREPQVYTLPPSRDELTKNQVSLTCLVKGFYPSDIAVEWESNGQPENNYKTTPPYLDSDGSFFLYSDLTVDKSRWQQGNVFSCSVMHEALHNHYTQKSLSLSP
Chain of antibody-half molecule A5 with PF1H and PF1L-k0 (PF1H-DA430v2/PF1L-k0) (heavy, as listed by the source): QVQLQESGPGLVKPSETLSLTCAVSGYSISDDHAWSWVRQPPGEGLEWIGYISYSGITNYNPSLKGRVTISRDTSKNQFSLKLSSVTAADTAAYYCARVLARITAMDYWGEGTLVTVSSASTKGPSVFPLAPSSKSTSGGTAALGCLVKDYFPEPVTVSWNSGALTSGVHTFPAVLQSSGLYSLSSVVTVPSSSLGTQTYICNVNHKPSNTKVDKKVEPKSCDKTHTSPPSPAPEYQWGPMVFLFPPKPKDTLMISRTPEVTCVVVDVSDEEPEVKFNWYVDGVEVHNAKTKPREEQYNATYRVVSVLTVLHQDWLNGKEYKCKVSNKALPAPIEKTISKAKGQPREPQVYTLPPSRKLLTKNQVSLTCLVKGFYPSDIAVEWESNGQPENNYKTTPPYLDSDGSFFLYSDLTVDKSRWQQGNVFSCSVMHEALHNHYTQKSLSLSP

molar binding ratio [1]: 0.38 molar ratio | molar binding ratio [2]: 0.54 molar ratio
B1: antibody-half molecule B1 with IC17H and IC17L-k0 (IC17H-DB220v2/IC17L-k0) (antibody, human IgG1, kappa)
heavy: QVQLQQSGPQLVRPGASVKISCKASGYSFTSYWMHWVNQRPGQGLEWIGMIDPSYSETRLNQKFKDKATLTVDKSSSTAYMQLSSPTSEDSAVYYCALYGNYFDYWGQGTTLTVSSASTKGPSVFPLAPSSKSTSGGTAALGCLVKDYFPEPVTVSWNSGALTSGVHTFPAVLQSSGLYSLSSVVTVPSSSLGTQTYICNVNHKPSNTKVDKKVEPKSCDKTHTSPPSPAPELLGGPSVFLFPPKPKDTLMISRTPEVTCVVVDVSHEEPEVKFNWYVDGVEVHNAKTKPREEQYNSTYRVVSVLTVLHQDWLNGKEYKCKVSNDALPMPIEETISKAKGQPREPQVYTLPPSRDELTKNQVSLTCLVKGFYPSDIAVEWESNGQPENNYKTTPPYLDSDGSFFLYSDLTVDKSRWQQGNVFSCSVMHEALHNHYTQESLSLSP
light: DIQMTQSSSSFSVSLGDRVTITCKASEDIYNRLAWYQQKPGNAPRLLISGATSLETGVPSRFSGSGSGKDYTLSITSLQTEDVATYYCQQYWSTPYTFGGGTKLEVKRTVAAPSVFIFPPSDEQLKSGTASVVCLLNNFYPREAKVQWKVDNALQSGNSQESVTEQDSKDSTYSLSSTLTLSKADYEKHKVYACEVTHQGLSSPVTKSFNRGEC

molar binding ratio [3]: 0.27 molar ratio
B2: antibody-half molecule B5 with IC17H and IC17L-k0 (IC17H-DB430v2/IC17L-k0) (antibody, human IgG1, kappa)
heavy: QVQLQQSGPQLVRPGASVKISCKASGYSFTSYWMHWVNQRPGQGLEWIGMIDPSYSETRLNQKFKDKATLTVDKSSSTAYMQLSSPTSEDSAVYYCALYGNYFDYWGQGTTLTVSSASTKGPSVFPLAPSSKSTSGGTAALGCLVKDYFPEPVTVSWNSGALTSGVHTFPAVLQSSGLYSLSSVVTVPSSSLGTQTYICNVNHKPSNTKVDKKVEPKSCDKTHTSPPSPAPELLGGPSVFLFPPKPKDTLMISRTPEVTCVVVDVSHEEPEVKFNWYVDGVEVHNAKTKPREEQYNSTYRVVSVLTVLHQDWLNGKEYKCKVSNDALPMPIEETISKAKGQPREPQVYTLPPSRDLLTKNQVSLTCLVKGFYPSDIAVEWESNGQPENNYKTTPPYLDSDGSFFLYSDLTVDKSRWQQGNVFSCSVMHEALHNHYTQESLSLSP
light: DIQMTQSSSSFSVSLGDRVTITCKASEDIYNRLAWYQQKPGNAPRLLISGATSLETGVPSRFSGSGSGKDYTLSITSLQTEDVATYYCQQYWSTPYTFGGGTKLEVKRTVAAPSVFIFPPSDEQLKSGTASVVCLLNNFYPREAKVQWKVDNALQSGNSQESVTEQDSKDSTYSLSSTLTLSKADYEKHKVYACEVTHQGLSSPVTKSFNRGEC

molar binding ratio [4]: 0.54 molar ratio
B3: antibody-half molecule B3 with IC17H and IC17L-k0 (IC17H-DB405v2/IC17L-k0) (antibody, human IgG1, kappa)
heavy: QVQLQQSGPQLVRPGASVKISCKASGYSFTSYWMHWVNQRPGQGLEWIGMIDPSYSETRLNQKFKDKATLTVDKSSSTAYMQLSSPTSEDSAVYYCALYGNYFDYWGQGTTLTVSSASTKGPSVFPLAPSSKSTSGGTAALGCLVKDYFPEPVTVSWNSGALTSGVHTFPAVLQSSGLYSLSSVVTVPSSSLGTQTYICNVNHKPSNTKVDKKVEPKSCDKTHTSPPSPAPELLGGPSVFLFPPKPKDTLMISRTPEVTCVVVDVSHEEPEVKFNWYVDGVEVHNAKTKPREEQYNSTYRVVSVLTVLHQDWLNGKEYKCKVSNDALPMPIEETISKAKGQPREPQVYTLPPSRDELTKNQVSLTCLVKGFYPSDIAVEWESNGQPENNYKTTPPYLDSDGSFFLYSTLTVDKSRWQQGNVFSCSVMHEALHNHYTQESLSLSP
light: DIQMTQSSSSFSVSLGDRVTITCKASEDIYNRLAWYQQKPGNAPRLLISGATSLETGVPSRFSGSGSGKDYTLSITSLQTEDVATYYCQQYWSTPYTFGGGTKLEVKRTVAAPSVFIFPPSDEQLKSGTASVVCLLNNFYPREAKVQWKVDNALQSGNSQESVTEQDSKDSTYSLSSTLTLSKADYEKHKVYACEVTHQGLSSPVTKSFNRGEC

molar binding ratio [5]: 0.25 molar ratio
B4: antibody-half molecule B4 with IC17H and IC17L-k0 (IC17H-DB424v2/IC17L-k0) (antibody, human IgG1, kappa)
heavy: QVQLQQSGPQLVRPGASVKISCKASGYSFTSYWMHWVNQRPGQGLEWIGMIDPSYSETRLNQKFKDKATLTVDKSSSTAYMQLSSPTSEDSAVYYCALYGNYFDYWGQGTTLTVSSASTKGPSVFPLAPSSKSTSGGTAALGCLVKDYFPEPVTVSWNSGALTSGVHTFPAVLQSSGLYSLSSVVTVPSSSLGTQTYICNVNHKPSNTKVDKKVEPKSCDKTHTSPPSPAPELLGGPSVFLFPPKPKDTLMISRTPEVTCVVVDVSHEEPEVKFNWYVDGVEVHNAKTKPREEQYNSTYRVVSVLTVLHQDWLNGKEYKCKVSNDALPMPIEETISKAKGQPREPQVYTLPPSRDNLTKNQVSLTCLVKGFYPSDIAVEWESNGQPENNYKTTPPYLDSDGSFFLYSDLTVDKSRWQQGNVFSCSVMHEALHNHYTQESLSLSP
light: DIQMTQSSSSFSVSLGDRVTITCKASEDIYNRLAWYQQKPGNAPRLLISGATSLETGVPSRFSGSGSGKDYTLSITSLQTEDVATYYCQQYWSTPYTFGGGTKLEVKRTVAAPSVFIFPPSDEQLKSGTASVVCLLNNFYPREAKVQWKVDNALQSGNSQESVTEQDSKDSTYSLSSTLTLSKADYEKHKVYACEVTHQGLSSPVTKSFNRGEC

molar binding ratio [6]: 0.63 molar ratio
B5: antibody-half molecule B2 with IC17H and IC17L-k0 (IC17H-DB402v2/IC17L-k0) (antibody, human IgG1, kappa)
heavy: QVQLQQSGPQLVRPGASVKISCKASGYSFTSYWMHWVNQRPGQGLEWIGMIDPSYSETRLNQKFKDKATLTVDKSSSTAYMQLSSPTSEDSAVYYCALYGNYFDYWGQGTTLTVSSASTKGPSVFPLAPSSKSTSGGTAALGCLVKDYFPEPVTVSWNSGALTSGVHTFPAVLQSSGLYSLSSVVTVPSSSLGTQTYICNVNHKPSNTKVDKKVEPKSCDKTHTSPPSPAPELLGGPSVFLFPPKPKDTLMISRTPEVTCVVVDVSHEEPEVKFNWYVDGVEVHNAKTKPREEQYNSTYRVVSVLTVLHQDWLNGKEYKCKVSNDALPMPIEETISKAKGQPREPQVYTLPPSRDELTKNQVSLTCLVKGFYPSDIAVEWESNGQPENNYKTTPPYLDSDGSFFLYSHLTVDKSRWQQGNVFSCSVMHEALHNHYTQESLSLSP
light: DIQMTQSSSSFSVSLGDRVTITCKASEDIYNRLAWYQQKPGNAPRLLISGATSLETGVPSRFSGSGSGKDYTLSITSLQTEDVATYYCQQYWSTPYTFGGGTKLEVKRTVAAPSVFIFPPSDEQLKSGTASVVCLLNNFYPREAKVQWKVDNALQSGNSQESVTEQDSKDSTYSLSSTLTLSKADYEKHKVYACEVTHQGLSSPVTKSFNRGEC

molar binding ratio [7]: 0.42 molar ratio
B6: antibody-half molecule B6 with IC17H and IC17L-k0 (IC17H-DB220v2.n.n/IC17L-k0) (antibody, human IgG1, kappa)
heavy: QVQLQQSGPQLVRPGASVKISCKASGYSFTSYWMHWVNQRPGQGLEWIGMIDPSYSETRLNQKFKDKATLTVDKSSSTAYMQLSSPTSEDSAVYYCALYGNYFDYWGQGTTLTVSSASTKGPSVFPLAPSSKSTSGGTAALGCLVKDYFPEPVTVSWNSGALTSGVHTFPAVLQSSGLYSLSSVVTVPSSSLGTQTYICNVNHKPSNTKVDKKVEPKSCDKTHTSPPSPAPELLGGPSVFLFPPKPKDTLMISRTPEVTCVVVDVSHEEPEVKFNWYVDGVEVHNAKTKPREEQYNSTYRVVSVLTVLHQDWLNGKEYKCKVSNDALPMPIEETISKAKGQPREPQVYTLPPSRDELTKNQVSLTCLVKGFYPSDIAVEWESNGQPENNYKTTPPYLDSDGSFFLYSDLTVDKSRWQQGNVFSCSVMHEALHNHYTQKSLSLSP
light: DIQMTQSSSSFSVSLGDRVTITCKASEDIYNRLAWYQQKPGNAPRLLISGATSLETGVPSRFSGSGSGKDYTLSITSLQTEDVATYYCQQYWSTPYTFGGGTKLEVKRTVAAPSVFIFPPSDEQLKSGTASVVCLLNNFYPREAKVQWKVDNALQSGNSQESVTEQDSKDSTYSLSSTLTLSKADYEKHKVYACEVTHQGLSSPVTKSFNRGEC

Source: patent publication US20240417464A1 (published 2024)
